Data as given in patent US20250237662A1.

Columns and labels:
[1] = biological target: cynomolgus monkey IgG (cynoIgG); test: direct ELISA, cynoIgG coated (hIgG4/CynoIgG screen), B-cell culture medium
[2] = biological target: humanized development candidate monoclonal antibody IgG4 (hIgG4); test: Gyrolab, mAb as capture, hIgG4 200 ng/ml, against the blank
[3] = biological target: drug: a monoclonal antibody of human IgG4 isotype (PandA assay); test: PandA assay, mAb 0.75 ug/ml in monkey plasma
[4] = biological target: humanized development candidate monoclonal antibody IgG4 (hIgG4); test: Gyrolab, mAb as capture, hIgG4 1000 ng/ml, against the blank
[5] = biological target: humanized development candidate monoclonal antibody IgG4 (hIgG4); test: Gyrolab, mAb as capture, hIgG4 0.32 ng/ml, against the blank
[6] = biological target: humanized development candidate monoclonal antibody IgG4 (hIgG4); test: Gyrolab, mAb as capture, hIgG4 8 ng/ml
[7] = biological target: cynomolgus monkey IgG (cynoIgG); test: direct ELISA, cynoIgG coated (hIgG1/CynoIgG screen), B-cell culture medium
[8] = biological target: drug: a monoclonal antibody of human IgG4 isotype (PandA assay); test: PandA assay, mAb 0.5 ug/ml in monkey plasma
[9] = biological target: drug: a monoclonal antibody of human IgG4 isotype (PandA assay); test: PandA assay, signal to noise against the negative control
[10] = biological target: humanized development candidate monoclonal antibody IgG4 (hIgG4); test: Gyrolab, mAb as capture, hIgG4 1000 ng/ml
[11] = biological target: drug: a monoclonal antibody of human IgG4 isotype (PandA assay); test: PandA assay, mAb 1 ug/ml in monkey plasma
[12] = biological target: humanized development candidate monoclonal antibody IgG4 (hIgG4); test: Gyrolab, mAb as capture, hIgG4 5000 ng/ml
[13] = biological target: drug: a monoclonal antibody of human IgG4 isotype (PandA assay); test: PandA assay, monkey matrix, mAb 0.5 ug/ml
[14] = biological target: humanized development candidate monoclonal antibody IgG4 (hIgG4); test: Gyrolab, mAb as capture, hIgG4 1.6 ng/ml, against the blank
[15] = biological target: drug: a monoclonal antibody of human IgG4 isotype (PandA assay); test: PandA assay, monkey matrix, mAb 5 ug/ml
[16] = biological target: humanized therapeutic monoclonal antibody IgG1 (hIgG1); test: ELISA, medium of transfected HEK293F; signal on hIgG1 over signal on cynoIgG
[17] = biological target: humanized development candidate monoclonal antibody IgG4 (hIgG4); test: direct ELISA, hIgG4 coated, B-cell culture medium
[18] = biological target: internal research reagent human Fab (hFab); test: SPR (Biacore T200), mAb captured by anti-rabbit mAb on CM5, antigen 80-0 nM, 1:1 fit
[19] = biological target: humanized development candidate monoclonal antibody IgG4 (hIgG4); test: as above
[20] = biological target: humanized therapeutic monoclonal antibody IgG1 (hIgG1); test: as above
[21] = biological target: humanized development candidate monoclonal antibody IgG4 (hIgG4); test: ELISA, medium of transfected HEK293F; signal on hIgG4 over signal on cynoIgG
[22] = biological target: humanized development candidate monoclonal antibody IgG4 (hIgG4); test: Gyrolab, mAb as capture, hIgG4 1.6 ng/ml
[23] = biological target: drug: a monoclonal antibody of human IgG4 isotype (PandA assay); test: PandA assay, monkey matrix, mAb 1 ug/ml
[24] = biological target: humanized development candidate monoclonal antibody IgG4 (hIgG4); test: Gyrolab, mAb as capture, hIgG4 200 ng/ml
[25] = biological target: humanized development candidate monoclonal antibody IgG4 (hIgG4); test: Gyrolab, mAb as capture, hIgG4 40 ng/ml
[26] = biological target: humanized development candidate monoclonal antibody IgG4 (hIgG4); test: Gyrolab, mAb as capture, hIgG4 5000 ng/ml, against the blank
[27] = biological target: humanized therapeutic monoclonal antibody IgG1 (hIgG1); test: direct ELISA, hIgG1 coated, B-cell culture medium
[28] = biological target: humanized development candidate monoclonal antibody IgG4 (hIgG4); test: Gyrolab, mAb as capture, hIgG4 0.32 ng/ml
[29] = biological target: humanized development candidate monoclonal antibody IgG4 (hIgG4); test: Gyrolab, mAb as capture, hIgG4 40 ng/ml, against the blank
[30] = biological target: humanized development candidate monoclonal antibody IgG4 (hIgG4); test: Gyrolab, mAb as capture, hIgG4 8 ng/ml, against the blank
[31] = biological target: drug: a monoclonal antibody of human IgG4 isotype (PandA assay); test: PandA assay, monkey matrix, mAb 0.75 ug/ml
[32] = biological target: drug: a monoclonal antibody of human IgG4 isotype (PandA assay); test: PandA assay (PEG precipitation, acid dissociation, MSD plate, sulfo-TAG-drug), mAb 5 ug/ml in monkey plasma

B1: rabbit anti-human IgG monoclonal antibody clone 2C5 (antibody, V domains shown)
VH: QEQLVESGGDLVKPGASLTLTCTASGFSFSSGYYMCWVRQAPGKGLEWIACIYGGALTNTYYATWAKGRFTISKTSSTTVTLQMTSLTAADTATYFCARDLGAAGDAYNLWGPGTLVTVSS
VL: ASDMTQTPASVSAAVGGTVTIKCQASESIYSGLAWYQQKPGQPPKLLIFDASDLASGVPSRFKGSRSETEYTLTISDLECADAATYYCQCTDRNSITSYAFGGGTEVVVKG
B1 showed an OD450 [1] of 0.124 OD450, a S/B [2] of 41.7 and an ECL Signal [3] of 323. It also gave a S/B [4] of 110, a S/B [5] of 1 and an Av. Resp. [6] of 6.6. For the same binder, the OD450 [7] was 0.107 OD450, the ECL Signal [8] was 188 and the S/N [9] was 1.98. For the same binder, the Av. Resp. [10] was 232, the ECL Signal [11] was 426 and the Av. Resp. [12] was 317. It also gave a S/N (monkey) [13] of 1.93, a S/B [14] of 1.4 and a S/N (monkey) [15] of 15.7. The ELISA signal ratio hIgG1/CynoIgG [16] was 7.72, the OD450 [17] was 1.29 OD450 and the Kd [18] was 0.55 nM. For the same binder, the koff [18] was 0.00146 s⁻¹, the kon [18] was 2.65e+06 M⁻¹ s⁻¹ and the Kd [19] was 0.1 nM. It also gave a koff [19] of 1.36e-05 s⁻¹, a kon [19] of 135000 M⁻¹ s⁻¹ and a Kd [20] of 0.277 nM. It also gave a koff [20] of 3.8e-05 s⁻¹, a kon [20] of 137000 M⁻¹ s⁻¹ and an ELISA signal ratio hIgG4/CynoIgG [21] of 7.91. It also gave an Av. Resp. [22] of 3, a S/N (monkey) [23] of 3.39 and an Av. Resp. [24] of 87.7. For the same binder, the Av. Resp. [25] was 23.4, the S/B [26] was 151 and the OD450 [27] was 1.24 OD450. It also gave an Av. Resp. [28] of 2.1, a S/B [29] of 11.1 and a S/B [30] of 3.2. For the same binder, the S/N (monkey) [31] was 2.51 and the ECL Signal [32] was 2180.
